Source: paper PMC9695642, “Conservation of Importin α Function in Apicomplexans: Ivermectin and GW5074 Target Plasmodium falciparum Importin α and Inhibit Parasite Growth in Culture” (International Journal of Molecular Sciences, 2022)

T1: Plasmodium falciparum importin α, biotinylated GST fusion protein (Plasmodium falciparum, UniProt Q8IAW0 1-545, biotin (Sulfo-NHS-Biotin reagent))
T1 construct: importin α (IMPα) of Plasmodium falciparum; also called PfIMPα; IMPα from P. falciparum; source: recombinantly expressed, purified as GST fusion protein
T1 sequence (looked up): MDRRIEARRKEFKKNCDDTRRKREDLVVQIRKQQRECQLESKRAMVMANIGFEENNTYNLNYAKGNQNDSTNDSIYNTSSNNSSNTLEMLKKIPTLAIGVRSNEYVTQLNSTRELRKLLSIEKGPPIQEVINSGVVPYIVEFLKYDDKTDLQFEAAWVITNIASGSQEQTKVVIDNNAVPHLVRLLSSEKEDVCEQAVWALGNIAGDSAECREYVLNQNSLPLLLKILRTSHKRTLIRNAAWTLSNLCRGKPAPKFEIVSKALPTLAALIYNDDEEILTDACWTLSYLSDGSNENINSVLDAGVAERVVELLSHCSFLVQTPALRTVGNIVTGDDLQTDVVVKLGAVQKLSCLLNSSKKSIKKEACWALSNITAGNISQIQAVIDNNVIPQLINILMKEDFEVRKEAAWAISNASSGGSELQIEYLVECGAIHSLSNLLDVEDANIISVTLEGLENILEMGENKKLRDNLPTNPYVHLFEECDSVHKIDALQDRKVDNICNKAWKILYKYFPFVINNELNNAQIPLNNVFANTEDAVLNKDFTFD

B1: His-tagged Plasmodium falciparum importin α (natural protein, UniProt Q8IAW0 1-545, looked up)
chain: MDRRIEARRKEFKKNCDDTRRKREDLVVQIRKQQRECQLESKRAMVMANIGFEENNTYNLNYAKGNQNDSTNDSIYNTSSNNSSNTLEMLKKIPTLAIGVRSNEYVTQLNSTRELRKLLSIEKGPPIQEVINSGVVPYIVEFLKYDDKTDLQFEAAWVITNIASGSQEQTKVVIDNNAVPHLVRLLSSEKEDVCEQAVWALGNIAGDSAECREYVLNQNSLPLLLKILRTSHKRTLIRNAAWTLSNLCRGKPAPKFEIVSKALPTLAALIYNDDEEILTDACWTLSYLSDGSNENINSVLDAGVAERVVELLSHCSFLVQTPALRTVGNIVTGDDLQTDVVVKLGAVQKLSCLLNSSKKSIKKEACWALSNITAGNISQIQAVIDNNVIPQLINILMKEDFEVRKEAAWAISNASSGGSELQIEYLVECGAIHSLSNLLDVEDANIISVTLEGLENILEMGENKKLRDNLPTNPYVHLFEECDSVHKIDALQDRKVDNICNKAWKILYKYFPFVINNELNNAQIPLNNVFANTEDAVLNKDFTFD
notes: importin α (IMPα) of Plasmodium falciparum; also called PfIMPα; His-tagged PfIMPα

How the values were obtained:
Conditions in all cases: both partners purified
[1] = target: T1, Plasmodium falciparum importin α, …; assay: AlphaScreen or HTRF; biotinylated IMPαs titrated against His-tagged NLS-GFPs (30 nM); apparent dissociation constant
[2] = target: T2, Toxoplasma gondii importin α, biotinylated GST fusion protein (Toxoplasma gondii, biotin (Sulfo-NHS-Biotin reagent)); assay: as above
T2 construct: importin α (IMPα) of Toxoplasma gondii; also called TgIMPα; T. gondii IMPα; source: recombinantly expressed, purified as GST fusion protein

[3] = target: mammalian IMPα/β1 heterodimer from M. musculus (Mus musculus, UniProt P52293 1-529; P70168 1-876, biotin (Sulfo-NHS-Biotin reagent)); assay: as above
[4] = target: T3, biotinylated GST-MmIMPβ1 (Mus musculus importin β1) (Mus musculus, UniProt P70168 1-876, biotin (Sulfo-NHS-Biotin reagent)); assay: AlphaScreen or HTRF; His-tagged IMPαs (30 nM) titrated with increasing concentrations of biotinylated GST-MmIMPβ1 (legend: 5 nM)
T3 construct: Mus musculus importin β1 (MmIMPβ1); also called M. musculus IMPβ1; mammalian IMPβ1; source: recombinantly expressed, purified as GST fusion protein

| Binder | Kd [1] [nM] | Kd [2] [nM] | Kd [3] [nM] | Kd [4] [nM] |
| --- | --- | --- | --- | --- |
| PPKKKRKV (domain or fragment) [His-tagged T-ag-NLS-GFP (NLS of simian virus SV40 large tumour antigen fused to GFP)] | 2.9 | 3.9 | 2.8 | – |
| B1 | – | – | – | 1.3 |
